This note sets out measurements from publication PMC4634331, “Single-molecule spectroscopy exposes hidden states in an enzymatic electron relay” (Nature Communications, 2015).

Substrate in the data set: OC(CS)C(O)CS
Nature of the data set: oxygen consumption, Clark-type oxygen electrode. It is filed as biochemical, Trypanosoma brucei. As to conditions: O2 as electron acceptor, air-saturated, 25 °C, 50 nM enzyme, Michaelis-Menten fit of data up to 1 mM DTT (turnover rises beyond the fit above 1 mM).

B1: TbQSOX (Trypanosoma brucei brucei TREU927) (protein)
chain: SVAQVATGSPRPGLFHLDSSVVDLSGDDFSRVHRVAPLCPWIVLFYNDGCGACRRYASTFSKFAGGLKVEHGKDALQIATAAAVNCASEVDLCRKYDINFVPRLFFFYPRDSCRSNEECGTSSLEHVAFENSHLEVDELESEVRRLVNKHMVVDDSLKERCIDMHFKLYTSKEELVKRSVSSTDESGRFVETTELYATDIAGAFFSAMHYDVSLVGTEPRERLTALEDFVLLVKDSLPSIGADGVVSALESITAERPFTVASWQDAVVKSGIPFDGSPRNVRWRTCRGSSPQYRGFPCGMWLLLHALTVNTPADRNVLEVIQNYIRYFFSCKECRDHFIQFNFSPNEDPVLQLWRAHNNVNARLANVKDGADPLVPKRQFPTLEACTECYDGAGNFIEAHVTGFLKQRYLWDPKAVGLMESNDDLNEVDPASKDANVGRNVESSGKGKGDGGARGNSKEVRSDHAG
On to B1, for which the Michaelis constant (Km) turned out to be 65 ± 10 µM.

The term Km denotes the substrate concentration at which the rate is half of its maximum.
